Target: T1, IFN regulatory factor 3 (mouse (endogenous in BMDMs)), P70671
T1 chain: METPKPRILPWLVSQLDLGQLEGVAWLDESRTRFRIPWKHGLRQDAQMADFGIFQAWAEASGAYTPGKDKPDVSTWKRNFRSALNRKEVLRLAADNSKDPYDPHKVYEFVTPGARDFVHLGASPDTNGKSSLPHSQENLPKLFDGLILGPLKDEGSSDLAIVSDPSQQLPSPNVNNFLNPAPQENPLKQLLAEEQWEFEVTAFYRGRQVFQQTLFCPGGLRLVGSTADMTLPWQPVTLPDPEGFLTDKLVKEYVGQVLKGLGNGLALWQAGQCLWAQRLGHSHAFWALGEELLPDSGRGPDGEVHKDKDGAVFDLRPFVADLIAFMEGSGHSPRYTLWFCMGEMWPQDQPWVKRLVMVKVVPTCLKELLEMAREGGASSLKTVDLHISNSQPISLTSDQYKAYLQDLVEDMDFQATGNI
Experiment: native gel or EMSA
Conditions: remark: other sources report otherwise

B1: IFN regulatory factor 3, P70671 1-419 (natural protein)
chain: T1 chain
  stoichiometry N: 2
